Results published in article PMC2975657.
Values joined by “and” are separate entries in the source; they are usually repeats but may differ in a detail not shown here. Identical values can stand only once.

Legend:
[1] = biological target: protective antigen, proteolytically activated 63-kDa portion (PA63) (Bacillus anthracis); test: native MS
[2] = biological target: Lethal factor LFN (Bacillus anthracis) (UniProt P15917); conditions: cited from earlier work
[3] = biological target: protective antigen, proteolytically activated 63-kDa portion (PA63) (Bacillus anthracis); test: negative-stain electron microscopy
[4] = biological target: PA7(LFN)3 complex (heptameric PA oligomer with three LFN) (Bacillus anthracis); test: native MS
[5] = biological target: PA8(LFN)4 complex (octameric PA oligomer with four LFN) (Bacillus anthracis); test: native MS
[6] = biological target: PA7(LFN)3 complex (heptameric PA oligomer with three LFN) (Bacillus anthracis)
[7] = biological target: PA8(LFN)4 complex (octameric PA oligomer with four LFN) (Bacillus anthracis)

Substance: LF's PA binding domain (LFN, the first 263 residues of LF) (domain or fragment)
- stoichiometry N (LFN per PA2 intermediate) [1]: 1
- stoichiometry N (LFN per PA4 intermediate) [1]: 2
- stoichiometry N (LFN per PA7 oligomer) [1]: 3
- stoichiometry N (LFN per PA8 oligomer) [1]: 4

Substance: Protective antigen (from UniProt P13423)
- Kd [2]: 1 nM

Substance: protective antigen, proteolytically activated 63-kDa portion (PA63) (domain or fragment)
- stoichiometry N [1]: 4 and 2
- stoichiometry N (PA63 per oligomer) [1]: 8 and 7
- stoichiometry N (PA63 per oligomer) [3]: 7 and 8

Substance: soluble monomeric ANTXR2 extracellular domain (msANTXR2), capillary morphogenesis protein 2 residues 40-217 (from UniProt P58335 40-217) (receptor)
- stoichiometry N (msANTXR2 per PA7(LFN)3 complex) [4]: 7
- stoichiometry N (msANTXR2 per PA8(LFN)4 complex) [5]: 8
- pH midpoint of the prechannel-to-channel transition, CD signal at 222 nm, 37°C [6]: 5.8 pH
- pH midpoint of the prechannel-to-channel transition, CD signal at 222 nm, 37°C [7]: 5.8 pH
